# Experimental data from PMC2756588.
# Target: T1, Lsb1, P53281
# T1 sequence (P53281 45-122, looked up): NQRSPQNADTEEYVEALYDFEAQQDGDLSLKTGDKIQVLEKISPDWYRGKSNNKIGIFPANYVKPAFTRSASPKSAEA
# Test: SPOT array
# Details: median of control spots 388
row,Binder,SPOT intensity
1,AAHKTKPSIPPKKVE,0
2,KTKQQKPAIPQKKSF,0
3,MTKTPETSPPKRPMG,3

# Target: T2, Cyk3, Q07533
# T2 sequence (Q07533 1-83, looked up): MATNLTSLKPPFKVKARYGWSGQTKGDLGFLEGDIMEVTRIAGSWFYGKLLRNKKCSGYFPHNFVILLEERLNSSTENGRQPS
# Test: SPOT array
# Details: median of control spots 1451
row,Binder,SPOT intensity
1,AAHKTKPSIPPKKVE,0
2,KTKQQKPAIPQKKSF,0
3,MTKTPETSPPKRPMG,0

# Target: Bem1-1, P29366
# Sequence (P29366 55-141): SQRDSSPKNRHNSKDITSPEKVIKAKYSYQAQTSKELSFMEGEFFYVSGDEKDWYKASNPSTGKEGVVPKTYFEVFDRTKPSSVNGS
# Test: SPOT array
# Details: median of control spots 4282
row,Binder,SPOT intensity
1,AAHKTKPSIPPKKVE,0
2,KTKQQKPAIPQKKSF,0
3,MTKTPETSPPKRPMG,0

# Target: T3, Hse1, P38753
# T3 sequence (P38753 208-285, looked up): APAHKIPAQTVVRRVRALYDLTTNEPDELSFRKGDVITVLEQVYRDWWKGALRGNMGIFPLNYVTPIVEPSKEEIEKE
# Test: SPOT array
# Details: median of control spots 1727
row,Binder,SPOT intensity
1,AAHKTKPSIPPKKVE,0
2,KTKQQKPAIPQKKSF,6
3,MTKTPETSPPKRPMG,0

# Target: T4, Hof1, Q05080
# T4 sequence (Q05080 590-669, looked up): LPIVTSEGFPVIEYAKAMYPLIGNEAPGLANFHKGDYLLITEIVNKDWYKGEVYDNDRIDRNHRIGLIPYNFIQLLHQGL
# Test: SPOT array
# Details: median of control spots 4086
row,Binder,SPOT intensity
1,AAHKTKPSIPPKKVE,0
2,KTKQQKPAIPQKKSF,0
3,MTKTPETSPPKRPMG,16

# Target: T5, Lsb4, P32793
# T5 sequence (P32793 402-468, looked up): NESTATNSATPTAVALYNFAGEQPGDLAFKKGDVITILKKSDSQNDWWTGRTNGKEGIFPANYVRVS
# Test: SPOT array
# Details: median of control spots 397
row,Binder,SPOT intensity
1,AAHKTKPSIPPKKVE,0
2,KTKQQKPAIPQKKSF,2
3,MTKTPETSPPKRPMG,36

# Target: T6, Fus1, P11710
# T6 sequence (P11710 432-512, looked up): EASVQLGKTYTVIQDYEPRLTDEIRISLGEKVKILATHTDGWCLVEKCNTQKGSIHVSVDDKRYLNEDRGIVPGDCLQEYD
# Test: SPOT array
# Details: median of control spots 1200
row,Binder,SPOT intensity
1,AAHKTKPSIPPKKVE,1
2,KTKQQKPAIPQKKSF,0
3,MTKTPETSPPKRPMG,0

# Target: T7, Lsb3, P43603
# T7 sequence (P43603 385-451, looked up): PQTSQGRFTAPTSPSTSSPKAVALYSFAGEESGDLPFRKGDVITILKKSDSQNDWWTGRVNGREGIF
# Test: SPOT array
# Details: median of control spots 406
row,Binder,SPOT intensity
1,AAHKTKPSIPPKKVE,0
2,KTKQQKPAIPQKKSF,4
3,MTKTPETSPPKRPMG,34

# Target: T8, Pin3, Q06449
# T8 sequence (Q06449 53-122, looked up): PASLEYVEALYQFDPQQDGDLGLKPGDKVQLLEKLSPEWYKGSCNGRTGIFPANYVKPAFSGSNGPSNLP
# Test: SPOT array
# Details: median of control spots 2171
row,Binder,SPOT intensity
1,AAHKTKPSIPPKKVE,0
2,KTKQQKPAIPQKKSF,3
3,MTKTPETSPPKRPMG,24

# Target: T9, Boi2, P39969
# T9 sequence (P39969 32-116, looked up): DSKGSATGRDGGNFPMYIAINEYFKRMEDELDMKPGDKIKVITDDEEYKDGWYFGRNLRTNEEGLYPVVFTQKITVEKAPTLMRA
# Test: SPOT array
# Details: median of control spots 1161
row,Binder,SPOT intensity
1,AAHKTKPSIPPKKVE,1
2,KTKQQKPAIPQKKSF,0
3,MTKTPETSPPKRPMG,0

# Target: T10, Boi1, P38041
# T10 sequence (P38041 1-86, looked up): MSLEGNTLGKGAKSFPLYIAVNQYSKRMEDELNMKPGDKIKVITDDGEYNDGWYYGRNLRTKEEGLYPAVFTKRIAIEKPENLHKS
# Test: SPOT array
# Details: median of control spots 1162
row,Binder,SPOT intensity
1,AAHKTKPSIPPKKVE,0
2,KTKQQKPAIPQKKSF,0
3,MTKTPETSPPKRPMG,0

# Target: T11, Myo5, Q04439
# T11 sequence (Q04439 1072-1160, looked up): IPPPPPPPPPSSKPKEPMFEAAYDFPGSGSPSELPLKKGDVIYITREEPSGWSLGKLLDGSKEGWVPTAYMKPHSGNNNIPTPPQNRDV
# Test: SPOT array
# Details: median of control spots 471
row,Binder,SPOT intensity
1,AAHKTKPSIPPKKVE,0
2,KTKQQKPAIPQKKSF,1
3,MTKTPETSPPKRPMG,499

# Target: Sho1, P40073
# Sequence (P40073 287-367): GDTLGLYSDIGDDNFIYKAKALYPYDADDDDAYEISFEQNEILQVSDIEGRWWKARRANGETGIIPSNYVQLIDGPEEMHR
# Test: SPOT array
# Details: median of control spots 1148
row,Binder,SPOT intensity
1,AAHKTKPSIPPKKVE,4
2,KTKQQKPAIPQKKSF,38
3,MTKTPETSPPKRPMG,5

# Target: T12, Bbc1, P47068
# T12 sequence (P47068 1-78, looked up): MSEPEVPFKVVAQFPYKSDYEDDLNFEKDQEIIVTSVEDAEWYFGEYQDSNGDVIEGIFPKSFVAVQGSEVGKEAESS
# Test: SPOT array
# Details: median of control spots 796
row,Binder,SPOT intensity
1,AAHKTKPSIPPKKVE,0
2,KTKQQKPAIPQKKSF,1
3,MTKTPETSPPKRPMG,0

# Target: T13, Bud14, P27637
# T13 sequence (P27637 247-328, looked up): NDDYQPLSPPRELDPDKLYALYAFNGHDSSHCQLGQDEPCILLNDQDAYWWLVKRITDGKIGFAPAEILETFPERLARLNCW
# Test: SPOT array
# Details: median of control spots 956
row,Binder,SPOT intensity
1,AAHKTKPSIPPKKVE,0
2,KTKQQKPAIPQKKSF,0
3,MTKTPETSPPKRPMG,0

# Target: T14, Bzz1-1, P38822
# T14 sequence (P38822 478-572, looked up): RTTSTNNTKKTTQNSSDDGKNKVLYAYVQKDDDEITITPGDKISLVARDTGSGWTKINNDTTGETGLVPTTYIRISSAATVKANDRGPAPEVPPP
# Test: SPOT array
# Details: median of control spots 4446
row,Binder,SPOT intensity
1,AAHKTKPSIPPKKVE,0
2,KTKQQKPAIPQKKSF,0
3,MTKTPETSPPKRPMG,3

# Target: Bem1-2, P29366
# Sequence (P29366 139-227): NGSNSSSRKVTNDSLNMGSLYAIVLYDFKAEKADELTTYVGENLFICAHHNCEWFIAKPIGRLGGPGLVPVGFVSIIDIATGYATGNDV
# Test: SPOT array
# Details: median of control spots 4347
row,Binder,SPOT intensity
1,AAHKTKPSIPPKKVE,0
2,KTKQQKPAIPQKKSF,5
3,MTKTPETSPPKRPMG,3

# Target: GST
# Test: SPOT array
# Details: median of control spots 978
row,Binder,SPOT intensity
1,AAHKTKPSIPPKKVE,0
2,KTKQQKPAIPQKKSF,1
3,MTKTPETSPPKRPMG,0

# Target: T15, Abp1, P15891
# T15 sequence (P15891 535-592, looked up): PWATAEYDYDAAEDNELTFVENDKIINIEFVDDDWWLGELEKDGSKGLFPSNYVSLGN
# Test: SPOT array
# Details: median of control spots 935
row,Binder,SPOT intensity
1,AAHKTKPSIPPKKVE,239
2,KTKQQKPAIPQKKSF,617
3,MTKTPETSPPKRPMG,75

# Target: Myo3, P36006
# Test: SPOT array
# Details: median of control spots 468
row,Binder,SPOT intensity
1,AAHKTKPSIPPKKVE,0
2,KTKQQKPAIPQKKSF,2
3,MTKTPETSPPKRPMG,455

# Target: T16, Pex13, P80667
# T16 sequence (P80667 295-386, looked up): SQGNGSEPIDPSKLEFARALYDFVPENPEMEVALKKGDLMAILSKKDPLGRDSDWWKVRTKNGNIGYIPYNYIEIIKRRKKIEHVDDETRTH
# Test: SPOT array
# Details: median of control spots 1341
row,Binder,SPOT intensity
1,AAHKTKPSIPPKKVE,2
2,KTKQQKPAIPQKKSF,5
3,MTKTPETSPPKRPMG,8

# Target: T17, Cdc25, P04821
# T17 sequence (P04821 50-136, looked up): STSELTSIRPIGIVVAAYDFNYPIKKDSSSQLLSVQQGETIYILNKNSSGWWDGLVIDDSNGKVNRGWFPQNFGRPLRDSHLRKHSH
# Test: SPOT array
# Details: median of control spots 969
row,Binder,SPOT intensity
1,AAHKTKPSIPPKKVE,0
2,KTKQQKPAIPQKKSF,3
3,MTKTPETSPPKRPMG,2

# Target: T18, Bzz1-2, P38822
# T18 sequence (P38822 568-633, looked up): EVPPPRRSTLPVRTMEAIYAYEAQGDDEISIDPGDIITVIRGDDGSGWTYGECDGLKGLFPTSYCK
# Test: SPOT array
# Details: median of control spots 4538
row,Binder,SPOT intensity
1,AAHKTKPSIPPKKVE,0
2,KTKQQKPAIPQKKSF,9
3,MTKTPETSPPKRPMG,4

# Target: T19, Nbp2, Q12163
# T19 sequence (Q12163 103-180, looked up): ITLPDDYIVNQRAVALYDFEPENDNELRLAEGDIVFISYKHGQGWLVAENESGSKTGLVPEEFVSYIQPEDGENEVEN
# Test: SPOT array
# Details: median of control spots 357
row,Binder,SPOT intensity
1,AAHKTKPSIPPKKVE,0
2,KTKQQKPAIPQKKSF,0
3,MTKTPETSPPKRPMG,0

# Target: Rvs167, P39743
# Sequence (P39743 419-482): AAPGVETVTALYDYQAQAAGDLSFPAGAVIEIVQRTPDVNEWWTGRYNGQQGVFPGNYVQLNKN
# Test: SPOT array
# Details: median of control spots 2707
row,Binder,SPOT intensity
1,AAHKTKPSIPPKKVE,0
2,KTKQQKPAIPQKKSF,4
3,MTKTPETSPPKRPMG,0

# Target: T20, Sla1-3, P32790
# T20 sequence (P32790 344-424, looked up): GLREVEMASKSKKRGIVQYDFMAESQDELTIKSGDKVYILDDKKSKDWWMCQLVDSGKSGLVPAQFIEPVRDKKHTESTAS
# Test: SPOT array
# Details: median of control spots 5475
row,Binder,SPOT intensity
1,AAHKTKPSIPPKKVE,0
2,KTKQQKPAIPQKKSF,0
3,MTKTPETSPPKRPMG,0

# Target: T21, Sla1-2, P32790
# T21 sequence (P32790 60-140, looked up): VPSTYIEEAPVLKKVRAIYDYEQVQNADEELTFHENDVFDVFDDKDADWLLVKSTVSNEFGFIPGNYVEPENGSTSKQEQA
# Test: SPOT array
# Details: median of control spots 712
row,Binder,SPOT intensity
1,AAHKTKPSIPPKKVE,0
2,KTKQQKPAIPQKKSF,0
3,MTKTPETSPPKRPMG,2
